Tests used:
[1] = system: N-term Biotin control peptide; test: Antibody specificity by ELISA; settings: ELISA binding, irrelevant peptide with N-terminal biotin
Experimental: (§1) To further characterize anti-hEGFRvIII mAbs, their binding specificity was examined by ELISA. […] For the junctional peptides that were linked to biotin either at C-terminal (SEQ ID NO:149) or N-terminal (SEQ ID NO:150) via a linker, plates were pre-coated with avidin. Also, coated was an irrelevant peptide (control peptide) with or without biotin at its N-terminal. Anti-EGFRvIII antibodies as well as an isotype control antibody were added to coated plates and allowed to incubate for 1 hour at 25° C. The plates were then washed and bound anti-EGFRvIII mAbs were detected with anti-human Fc antibodies conjugated with horse-radish peroxidase (HRP). Plates were developed with a tetra-methyl-benzidine (TMB) substrate solution to produce a colorimetric reaction and neutralized with sulfuric acid before reading absorbance at 450 nm on a VICTOR™ X5 plate reader. Data analysis used a sigmoidal dose-response model within PRISM™ software. […] NT: Not tested. Controls I-III: As described above.

Control peptide = test: Antibody specificity by ELISA; settings: ELISA binding, irrelevant peptide
Experimental: as §1

EGFRvIII-mFc = type: binding, human
Experimental: (§2) Measurements were conducted on a T100 BIACORE™ instrument. […] In the receptor-capture format, either EGFRvIII-mFc or EGFR-mFc, was captured on the BIACORE™ chip and the respective antibodies flowed over. Kinetic association (ka) and dissociation (kd) rate constants were determined by processing and fitting the data to a 1:1 binding model using Scrubber 2.0 curve fitting software. Binding dissociation equilibrium constants (KD) and dissociative half-lives (t1/2) were calculated from the kinetic rate constants as: KD (M)=kd/ka; and t1/2 (min)=ln 2/(60*kd).

EGFRvIII-mmh = EGFRvIII-mmh (Homo sapiens, UniProt P00533, DELINS30-297G); test: Antibody specificity by ELISA; settings: ELISA binding, plate coated with EGFRvIII-mmh
Experimental: (§3) To further characterize anti-hEGFRvIII mAbs, their binding specificity was examined by ELISA. […] For the junctional peptides that were linked to biotin either at C-terminal (SEQ ID NO:149) or N-terminal (SEQ ID NO:150) via a linker, plates were pre-coated with avidin. Also, coated was an irrelevant peptide (control peptide) with or without biotin at its N-terminal. Anti-EGFRvIII antibodies as well as an isotype control antibody were added to coated plates and allowed to incubate for 1 hour at 25° C. The plates were then washed and bound anti-EGFRvIII mAbs were detected with anti-human Fc antibodies conjugated with horse-radish peroxidase (HRP). […] Data analysis used a sigmoidal dose-response model within PRISM™ software.

C-term biotin J-peptide = C-term biotin J-peptide (Homo sapiens, UniProt P00533, DELINS30-297G); test: Antibody specificity by ELISA; settings: ELISA binding, avidin pre-coated plates
Experimental: as §3

[2] = molecular target: junctional peptide (J-peptide) (Homo sapiens, UniProt P00533, DELINS30-297G); test: Antibody specificity by ELISA; settings: ELISA binding
Experimental: as §3

EGFR-mmh = EGFR-mmh (Homo sapiens, UniProt P00533); test: Antibody specificity by ELISA; settings: read-out: EC50 EGFR-mmh (25° C.), ELISA binding, plate coated with EGFR-mmh
Experimental: as §3

N-term biotin J-peptide = N-term biotin J-peptide (Homo sapiens, UniProt P00533, DELINS30-297G); test: Antibody specificity by ELISA; settings: ELISA binding, avidin pre-coated plates
Experimental: as §3

HEK293 cells = test: FACS cell binding selectivity; type: cell-based; settings: directly labeled (ALEXA FLUOR 488) antibodies, 10 μg/ml
Experimental: To determine the specificity of the anti-EGFRvIII mAbs, their binding to HEK293, HEK293 cells expressing EGFRvIII (HEK293/EGFRvIII) and A431 cells, was analyzed by fluorescence activated cell sorting (FACS). HEK293/EGFRvIII cells were prepared by transfecting HEK293 cells with neomycin resistant DNA vectors constitutively expressing full-length hEGFRvIII (SEQ ID NO:147) using LIPOFECTAMINE™ 2000 transfection reagent (INVITROGEN™). At two days post-transfection, cells were placed under G418 selection for approximately two weeks. Populations positively expressing EGFRvIII were isolated via fluorescence activated cell sorting (FACS). The HEK293 cells expressing ˜3×10^6 copies of EGFRvIII per cell were used in the experiment. Briefly, the anti-EGFRvIII antibodies at 10 μg/ml were incubated with cells for 30 minutes at room temperature, washed, incubated with secondary antibody, i.e., phycoerythrin (PE)-labeled goat F(ab′)2 against human IgG (cat #109-116-170, Jackson ImmunoResearch Laboratories), followed by a final wash before FACS analysis. In another set of experiment, anti-EGFRvIII antibodies were directly conjugated via their lysine residues with the fluorescent dye, ALEXA FLUOR® 488 Dye (INVITROGEN™), thereby eliminating the step using the secondary antibody. […] Controls I, II, III, IV and V are described above. MFI: Mean Fluorescence Intensity.

EGFR-mFc = EGFR-mFc (Homo sapiens, UniProt P00533); test: SPR (BIACORE) binding kinetics, receptor-capture format; settings: 37° C., EGFR-mFc captured, NB=no binding
Experimental: as §2

[3] = 37° C., receptor-capture, EGFRvIII-mFc captured

B1: H1H1915N: human IgG1 Fc anti-EGFRvIII antibody with variable domains 1915; HCVR/LCVR SEQ ID NOs 82/90 (antibody, V domains shown)
VH: QVQLVESGGGVVQPGRSLRLSCAASGFTFSAYAMHWVRQAPGKGLEWVAVIWYDGSNKNYADSVKGRFTVSRDNSKNTLYLEMNSLRAEDTAVYYCARDLMVGVTNYWGQGTLVTVST
VL: DVVMTQSPLSLPVALGQPASISCRSSQSLVYTDGNTYLNWFHQRPGQSPRRLIYKVSNRDSGVPDRFTGSGSGTDFTLKISRVEAEDVGVFYCMQGSHWPPYTFGQGTKLEIK
modifications: human IgG1 Fc
In the case of B1, the EC50 [1] is reported as > 10 nM, the EC50 (Control peptide) is reported as > 10 nM and the ka (EGFRvIII-mFc; [3]) is reported as 100000 M⁻¹ s⁻¹. For the same molecule, the kd (EGFRvIII-mFc; [3]) was 0.000328 s⁻¹, the “selectivity for EGFRvIII over wild-type EGFR” value (EGFRvIII-mFc; receptor capture format (Table 4)) was “greatest selectivity” and the “EC50 EGFRvIII-mmh (25° C.)” value (EGFRvIII-mmh) was “strong binding”. The EC50 (C-term biotin J-peptide) was > 10 nM, the EC50 [2] was > 10 nM and the EC50 (EGFR-mmh) was > 10 nM. The EC50 (N-term biotin J-peptide) was > 10 nM, the “Parental HEK293 MFI” value (HEK293 cells) was 3461 and the ka (EGFR-mFc) was 43500 M⁻¹ s⁻¹. For the same molecule, the kd (EGFR-mFc) was 0.00801 s⁻¹.

Source: patent US11608380B2, “Anti-EGFRvIII antibodies and uses thereof” (REGENERON PHARMACEUTICALS, INC., priority 2014, dated 2023)
